Assay results as given in patent publication US20220002363A1, “COMPOSITIONS AND METHODS FOR TREATING PULMONARY DISEASE” (United States Government As Represented By The Department …, priority 2020, published 2022).
Entries after “also recorded” stand apart in the source; their conditions may differ.

Target: T1, Fas (Homo sapiens, UniProt P25445)
T1 construct: host or cells: Jurkat (human leukemic T lymphocytes)
T1 sequence (P25445 26-335): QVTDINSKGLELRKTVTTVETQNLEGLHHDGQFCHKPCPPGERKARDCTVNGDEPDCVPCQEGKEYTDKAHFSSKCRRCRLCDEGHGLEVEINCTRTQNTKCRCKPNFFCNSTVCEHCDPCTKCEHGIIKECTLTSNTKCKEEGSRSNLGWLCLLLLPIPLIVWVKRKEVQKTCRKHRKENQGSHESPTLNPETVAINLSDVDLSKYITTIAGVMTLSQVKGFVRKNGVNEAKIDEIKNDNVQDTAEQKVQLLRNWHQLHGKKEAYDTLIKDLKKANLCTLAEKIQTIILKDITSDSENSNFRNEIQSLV
Assay: Caspase 3/7 activity in Jurkat cells with Fas-activating antibody CH-11 and mut-sFasL at different molar ratios
Assay type: cell-based
Conditions: 5-hour incubation
Description: The mixtures were incubated for 2 hours in 96-well plates pre-coated with recombinant hsFas (250 ng/ml). After washing unbound material, biotin was detected using HRP conjugated Streptavidin. […] The sFasL bound to Fas was detected using polyclonal anti-human FasL antibodies. […] Different molar ratios of the Fas-activating antibody CH-11 and mut-sFasL were added, and caspase 3/7 activity measured after 5 hours. […] Data represent the results from three separate experiments, each done in duplicate, and were analyzed by 2-way ANOVA with Sidak's post hoc analysis. […] Each dot represents individual data; lines represent means±SD. *=P<0.05; **=P<0.01, ***P<0.001.
Antibodies and Reagents. […] FLAG tagged mut-sFasL was detected using HRP anti-FLAG monoclonal antibody (Sigma-Aldrich, Cat #A85920). […]
Measurements of apoptotic cascade activation. Apoptotic cascade activation was assessed by determining caspase 3/7 activity and Annexin V externalization. Caspase-3/7 activity was measured using a commercial substrate (Caspase-Glo 3/7 Assay, Promega, Madison, Wis., Cat #G8090) following manufacturer's instructions. Annexin V was measured with a luminescent commercial assay that allows for measurement of annexin V externalization in adherent cells (RealTime-Glo Annexin V assay, Promega, Madison, Wis., Cat #JA1011). Luminescence was measured with a Synergy H4 Microplate Reader (BioTek, Winooski, Vt.). […]

B1: mut-sFasL: mutant sFasL molecule in which 8 charged amino acids in the 26 amino acid stalk region were changed to alanine (protein)
chain: QLFALQAALAALAASTSQMATASSLAKQIGHPSPPPEKKELRKVAHLTGKSNSRSMPLEWEDTYGIVLLSGVKYKKGGLVINETGLYFVYSKVYFRGQSCNNLPLSHKVYMRNSKYPQDLVMMEGKMMSYCTTGQMWARSSYLGAVFNLTSADHLYVNVSELSLVNFEESQTFFGLYKL
effect on CH11 activity at very high molar ratios: increased CH11 activity
effect on caspase 3/7 activation induced by CH11 (different molar ratios of mut-sFasL and antibody): did not attenuate the caspase 3/7 activation induced by CH11; also recorded: did not inhibit the activity of CH11
